Experimental data published in patent publication US20110262424A1 (published 2011).
Values belong to the molecule of their own block, whether it stands above or below them.

Legend:
[1] = target: human von Willebrand factor (human) (UniProt P04275); assay: SPR, Biacore 3000, vWF amine-coupled to CM5 chip, global fit to a simple interaction model
[2] = target: T1, human von Willebrand factor (human, UniProt P04275 764-2813, limits assumed); assay: as above
T1 construct: The preparation used in the assay is not described; also called vWF
Description: The binding of human-cl rhFVIII to human von Willebrand factor was analyzed using surface plasmon resonance with the Biacore 3000 instrument. The recombinant factor VIII products X and Y derived from murine cell lines (murine-cl rhFVIII X and Y) were used as comparators.
The von Willebrand factor was immobilized through primary amines to the carboxymethylated dextran of a CM5 sensor chip. The binding data were globally fit to a simple interaction model yielding kinetic parameters and affinities. The kinetics in binding and affinity to von Willebrand factor were analyzed. Furthermore, a quantitative measure of the capacity of Human-cl rhFVIII to bind to von Willebrand factor in comparison with other recombinant factor VIII products was obtained.

- Kd [1]: 0.32 nM
- koff [1]: 0.00105 s⁻¹
- kon [1]: 3.3e+06 M⁻¹ s⁻¹
Molecule: murine-cl rhFVIII X (recombinant factor VIII product X derived from a murine cell line) (from UniProt P00451 20-2351)

- Kd [1]: 0.34 nM
- koff [1]: 0.00105 s⁻¹
- kon [1]: 3.1e+06 M⁻¹ s⁻¹
Molecule: murine-cl rhFVIII Y (recombinant factor VIII product Y derived from a murine cell line) (from UniProt P00451 20-2351)

- Kd [2]: 0.21 nM
- koff [2]: 0.00095 s⁻¹
- kon [2]: 4.5e+06 M⁻¹ s⁻¹
B1: human cell line recombinant human factor VIII (human-cl rhFVIII), a human B-domain-deleted factor VIII protein produced in the human cell line HEK293F (other, UniProt P00451 20-2351, looked up)
chain: ATRRYYLGAVELSWDYMQSDLGELPVDARFPPRVPKSFPFNTSVVYKKTLFVEFTDHLFNIAKPRPPWMGLLGPTIQAEVYDTVVITLKNMASHPVSLHAVGVSYWKASEGAEYDDQTSQREKEDDKVFPGGSHTYVWQVLKENGPMASDPLCLTYSYLSHVDLVKDLNSGLIGALLVCREGSLAKEKTQTLHKFILLFAVFDEGKSWHSETKNSLMQDRDAASARAWPKMHTVNGYVNRSLPGLIGCHRKSVYWHVIGMGTTPEVHSIFLEGHTFLVRNHRQASLEISPITFLTAQTLLMDLGQFLLFCHISSHQHDGMEAYVKVDSCPEEPQLRMKNNEEAEDYDDDLTDSEMDVVRFDDDNSPSFIQIRSVAKKHPKTWVHYIAAEEEDWDYAPLVLAPDDRSYKSQYLNNGPQRIGRKYKKVRFMAYTDETFKTREAIQHESGILGPLLYGEVGDTLLIIFKNQASRPYNIYPHGITDVRPLYSRRLPKGVKHLKDFPILPGEIFKYKWTVTVEDGPTKSDPRCLTRYYSSFVNMERDLASGLIGPLLICYKESVDQRGNQIMSDKRNVILFSVFDENRSWYLTENIQRFLPNPAGVQLEDPEFQASNIMHSINGYVFDSLQLSVCLHEVAYWYILSIGAQTDFLSVFFSGYTFKHKMVYEDTLTLFPFSGETVFMSMENPGLWILGCHNSDFRNRGMTALLKVSSCDKNTGDYYEDSYEDISAYLLSKNNAIEPRSFSQNSRHQAYRYRRGEITRTTLQSDQEEIDYDDTISVEMKKEDFDIYDEDENQSPRSFQKKTRHYFIAAVERLWDYGMSSSPHVLRNRAQSGSVPQFKKVVFQEFTDGSFTQPLYRGELNEHLGLLGPYIRAEVEDNIMVTFRNQASRPYSFYSSLISYEEDQRQGAEPRKNFVKPNETKTYFWKVQHHMAPTKDEFDCKAWAYFSDVDLEKDVHSGLIGPLLVCHTNTLNPAHGRQVTVQEFALFFTIFDETKSWYFTENMERNCRAPCNIQMEDPTFKENYRFHAINGYIMDTLPGLVMAQDQRIRWYLLSMGSNENIHSIHFSGHVFTVRKKEEYKMALYNLYPGVFETVEMLPSKAGIWRVECLIGEHLHAGMSTLFLVYSNKCQTPLGMASGHIRDFQITASGQYGQWAPKLARLHYSGSINAWSTKEPFSWIKVDLLAPMIIHGIKTQGARQKFSSLYISQFIIMYSLDGKKWQTYRGNSTGTLMVFFGNVDSSGIKHNIFNPPIIARYIRLHPTHYSIRSTLRMELMGCDLNSCSMPLGMESKAISDAQITASSYFTNMFATWSPSKARLHLQGRSNAWRPQVNNPKEWLQVDFQKTMKVTGVTTQGVKSLLTSMYVKEFLISSSQDGHQWTLFFQNGKVKVFQGNQDSFTPVVNSLDPPLLTRYLRIHPQSWVHQIALRMEVLGCEAQDLY
notes: B-domain-deleted construct made in HEK293F cells
